The text below walks through data of paper PMC9651861 (2022).

In experiment [1] the target is T1, human serum albumin (human, UniProt P02768 25-609). In words: BLI. On the technique in general: Biolayer interferometry detects binding as a change in optical thickness at a sensor tip.
In experiment [2] the target is T1, human serum albumin. Kind of experiment: MST.
Experiment [3] deals with T1, human serum albumin. Kind of experiment: BLI. This is another data set of the same source.

B1: Nb.B201 (VHH)
VHH: QVQLQESGGGLVQAGGSLRLSCAASGYISDAYYMGWYRQAPGKEREFVATITHGTNTYYADSVKGRFTISRDNAKNTVYLQMNSLKPEDTAVYYCAVLETRSYSFRYWGQGTQVTVSS
In general, Kd refers to the free concentration of one partner at which half of the binding sites on the other are occupied at equilibrium, for simple one-to-one binding. The low end stands for a tighter complex, the high end for a looser complex. As for B1, in the experiment with human serum albumin [1], the Kd was around 370 nM.

B2: DesAb-HSA-D3, C-terminal cysteine variant labelled with Alexa Fluor 647 (VHH)
VHH: EVQLQESGGGLVQAGGSLRLSCAASGELYALISMGWFRQAPGKEREFVAAISRNGDNTYYTDSVKGRFTISRDNAKNTVELQMNSLKPEDTAVYYCAADKFASPDGSVTIMTNEYDYWGQGTQVTVSD
modifications: Alexa Fluor 647 (maleimide) on the free C-terminal cysteine of the Asp-Cys-Glu motif
In the case of B2, the Kd with human serum albumin [2] is 146 nM.

B3: DesAb-HSA-D3 (VHH)
VHH: EVQLQESGGGLVQAGGSLRLSCAASGELYALISMGWFRQAPGKEREFVAAISRNGDNTYYTDSVKGRFTISRDNAKNTVELQMNSLKPEDTAVYYCAADKFASPDGSVTIMTNEYDYWGQGTQVTVSD
B3: the Kd with human serum albumin [3] was found to be 308 nM.

B4: DesAb-HSA-P1, C-terminal cysteine variant labelled with Alexa Fluor 647 (VHH)
VHH: EVQLEESGGGLVQPGGSLRLSCAASGFNIKDTYIGWVRQAPGKGEEWVASIYPTSGYTRYADSVKGRFTISADTSKNTAYLQMNSLRAEDTAVYYCAAGSIQKSLQTAESILEEFDYWGQGTLVTVSS
modifications: Alexa Fluor 647 (maleimide) on the free C-terminal cysteine of the Asp-Cys-Glu motif
On to B4, for which the Kd with human serum albumin [2] amounted to 140 nM. In other words, the sub-micromolar range.

B5: DesAb-HSA-P1 (VHH)
VHH: EVQLEESGGGLVQPGGSLRLSCAASGFNIKDTYIGWVRQAPGKGEEWVASIYPTSGYTRYADSVKGRFTISADTSKNTAYLQMNSLRAEDTAVYYCAAGSIQKSLQTAESILEEFDYWGQGTLVTVSS
The molecule B5 yielded a Kd with human serum albumin [3] of 279 nM. In other words, the sub-micromolar range.

B6: DesAb-HSA-P2 (VHH)
VHH: EVQLEESGGGLVQPGGSLRLSCAASGFNIKDTYIGWVRQAPGKGEEWVASIYPTSGYTRYADSVKGRFTISADTSKNTAYLQMNSLRAEDTAVYYCAAGSAQAGNAEEAEEEFDYWGQGTLVTVSS
Molecule B6 displayed a dissociation constant (Kd) in the experiment with human serum albumin [3] of 412 nM.

B7: DesAb-HSA-P2, C-terminal cysteine variant labelled with Alexa Fluor 647 (VHH)
VHH: EVQLEESGGGLVQPGGSLRLSCAASGFNIKDTYIGWVRQAPGKGEEWVASIYPTSGYTRYADSVKGRFTISADTSKNTAYLQMNSLRAEDTAVYYCAAGSAQAGNAEEAEEEFDYWGQGTLVTVSS
modifications: Alexa Fluor 647 (maleimide) on the free C-terminal cysteine of the Asp-Cys-Glu motif
B7 gave a Kd in the experiment with human serum albumin [2] of 810 nM.
